Where two headings read alike, the source gives them in different places.
What was measured:
[1] = target: T1, CCL11_HUMAN (human, UniProt P51671 24-97); assay: yeast surface display FACS
[2] = target: T2, CCL5_HUMAN (human, UniProt P13501 24-91); assay: yeast surface display FACS
T2 sequence: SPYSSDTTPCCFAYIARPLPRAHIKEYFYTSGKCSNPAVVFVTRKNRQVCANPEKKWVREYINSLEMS

[3] = target: T3, CCL17_HUMAN (human, UniProt Q92583 24-94); assay: yeast surface display FACS
T3 sequence: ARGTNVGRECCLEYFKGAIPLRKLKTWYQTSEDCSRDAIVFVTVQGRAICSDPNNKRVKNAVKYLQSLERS

[4] = target: T4, CCL25_HUMAN (human, UniProt O15444 24-150); assay: yeast surface display FACS
T4 sequence: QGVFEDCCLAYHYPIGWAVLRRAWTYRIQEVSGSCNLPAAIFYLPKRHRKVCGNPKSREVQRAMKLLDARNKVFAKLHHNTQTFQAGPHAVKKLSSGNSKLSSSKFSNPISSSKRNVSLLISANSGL

[5] = target: T5, CCL18_HUMAN (human, UniProt P55774 21-89); assay: yeast surface display FACS
T5 sequence: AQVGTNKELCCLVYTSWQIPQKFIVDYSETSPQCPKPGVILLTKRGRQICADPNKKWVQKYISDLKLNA

[6] = target: T6, CCL1_HUMAN (human, UniProt P22362 24-96); assay: yeast surface display FACS
T6 sequence: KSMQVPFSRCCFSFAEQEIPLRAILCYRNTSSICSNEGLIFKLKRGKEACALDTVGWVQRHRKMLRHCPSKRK

[7] = target: T1, CCL11_HUMAN; assay: yeast surface display FACS; remark: listed apart in the source
[8] = target: T2, CCL5_HUMAN; assay: yeast surface display FACS; remark: listed apart in the source
[9] = target: T5, CCL18_HUMAN; assay: yeast surface display FACS; remark: listed apart in the source
[10] = target: CXCL12_HUMAN (human, UniProt P48061 22-89); assay: yeast surface display FACS
[11] = target: T7, CCL4_HUMAN (human, UniProt P13236 24-92); assay: yeast surface display FACS
T7 sequence: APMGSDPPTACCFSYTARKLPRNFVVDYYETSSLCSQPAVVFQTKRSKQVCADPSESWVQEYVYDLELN

[12] = target: T6, CCL1_HUMAN; assay: yeast surface display FACS; remark: listed apart in the source
[13] = target: T8, CCL3_HUMAN (human, UniProt P10147 24-92); assay: yeast surface display FACS
T8 sequence: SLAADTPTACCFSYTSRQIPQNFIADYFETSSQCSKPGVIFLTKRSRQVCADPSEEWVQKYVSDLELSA

[14] = target: T9, CCL19_HUMAN (human, UniProt Q99731 22-98); assay: yeast surface display FACS
T9 sequence: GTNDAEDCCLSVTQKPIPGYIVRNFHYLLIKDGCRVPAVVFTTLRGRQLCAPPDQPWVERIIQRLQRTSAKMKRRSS

[15] = target: T10, CCL15_HUMAN (human, UniProt Q16663 22-113); assay: yeast surface display FACS
T10 sequence: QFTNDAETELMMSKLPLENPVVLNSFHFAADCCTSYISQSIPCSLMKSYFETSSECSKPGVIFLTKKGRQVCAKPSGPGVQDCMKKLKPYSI

[16] = target: T11, CCL8_HUMAN (human, UniProt P80075 24-99); assay: cell-based or functional assay
T11 sequence (looked up): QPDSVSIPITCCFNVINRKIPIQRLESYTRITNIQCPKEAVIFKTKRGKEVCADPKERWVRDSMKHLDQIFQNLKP

[17] = target: CCL2-647 (human, UniProt P13500 24-99); assay: flow cytometry, inhibition of CCL2-647 binding to THP-1 cells
[18] = target: T8, CCL3_HUMAN; assay: cell-based or functional assay
[19] = target: T11, CCL8_HUMAN; assay: cell-based or functional assay; remark: listed apart in the source
[20] = target: T12, CCL8-647 (human, UniProt P80075 24-99); assay: flow cytometry, inhibition of CCL8-647 binding to THP-1 cells
T12 sequence (looked up): T11 sequence (looked up)

[21] = target: T11, CCL8_HUMAN; assay: yeast surface display FACS
[22] = target: T13, CXCL3_HUMAN (human, UniProt P19876 35-107); assay: BLI
T13 sequence: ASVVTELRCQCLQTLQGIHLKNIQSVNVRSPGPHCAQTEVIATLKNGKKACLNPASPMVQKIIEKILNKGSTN

[23] = target: T14, CXCL1_HUMAN (human, UniProt P09341 35-107); assay: BLI
T14 sequence: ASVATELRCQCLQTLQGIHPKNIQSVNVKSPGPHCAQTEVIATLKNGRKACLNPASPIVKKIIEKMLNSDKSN

[24] = target: T11, CCL8_HUMAN; assay: BLI, dose titration

T1 sequence (P51671 24-97 limits assumed): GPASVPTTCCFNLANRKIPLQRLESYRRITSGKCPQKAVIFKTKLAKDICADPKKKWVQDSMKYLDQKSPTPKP
CCL2-647, sequence (P13500 24-99 limits assumed): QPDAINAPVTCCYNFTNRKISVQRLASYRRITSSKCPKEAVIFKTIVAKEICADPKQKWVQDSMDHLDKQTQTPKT
CXCL12_HUMAN, sequence (P48061 22-89 limits assumed): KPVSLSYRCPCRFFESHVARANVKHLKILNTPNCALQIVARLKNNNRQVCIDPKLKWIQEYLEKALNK

B1: P1011_AMBTR (other)
chain: EKDTPKNIPGCEDAGTTAAPPADNPKHYAVYTDKNGCTFKVIGTWMTKEDHRRLPVSLRRVRASSGRVKLPASCQKICKHSVKKFPEGTPCRLVTRDPIKGKNHIKNGCIRGYCSSGVCVSDNRSISCYVLPNNTELTSPSGSFAE
B1: binds [1]; binds [2]; binds [3]. B1: binds [4]; binds [5].

B2: P1209_AMBPA (other)
chain: KTDTKNAAGELPPKVAIPGCEDPATTKAPLPDDPRYYGVTIDKDGCQRKVLGSSQRQQRQVQNGRKPGRKGRGRRPVFVDLKLTVDCKRKCNGTYSQLPDGEPCLVCDGEPYGRHRTIKGGCYQGNCSSGQCHRGERKVNCYIPKNITNNVLNSVNLAE
B2: binds [6]; binds [7]; binds [8]. B2: binds [9]; binds [10].

B3: P1014_AMBCA (other)
chain: DIIGGIPGCGDPTTTSAPEVPPKHFAVRTDKDGCTLMIIGTWMTTEDHNRLPPDIGEKRAPYGRVQLPASCKKNCHGKVKNLPNGTPCREVFGDPRRGRKHIKNGCTVGKCQSGLCVTDKRIISCYIPPNITDPIPTHGPWAE
B3: binds [11].

B4: P1005_AMBMA (other)
chain: EKDTPKNIPGCGDTGTTAAPPADNPKHFAVYTDKHGCTIKVIGTWMTKEDHSRLPVSLRRVRASSGRVMLPASCQKICNDTVKNFPEGTPCRLVTGDPIKGKNHIKDGCIRGYCSSGVCVSDKRNISCYVPPN
B4: binds [12]; binds [13]; binds [14]. B4: binds [1]; binds [2]; binds [3].

B5: P1006_AMBCA (other)
chain: DTIGGIPGCGDPATTSAPEDQPKHYAVRTDKNGCKVMVIGTWMTKEDHNLLPPYISKERAPSGKVQLPASCKKNCHGKLKNLPNGTPCREVFGDLRRRRKHIKDGCKVGKCQNGLCVSEERIISCYLPPNITDPRPTHGPLAE
B5: binds [14]; binds [15]; binds [2]. B5: binds [4].

B6: P672_RHIPU (other)
chain: VCEVSEQEGVGEDNATEDEDYEDFFKPVTCYFANSTVGPLRPPNCTVVCTNNTAWWNDTKSDGGHCYSEYRPEKRTHSREIYNCTIGVCGNGTCIANHTYADCW
B6 was tested, and the “IC50, CCL8 induced THP-1 cell migration” value [16] was 3 nM, the IC50 [17] was 21 nM and the “IC50, THP1 cell migration” value [18] was 5.74 nM. The “IC50, THP1 cell migration” value [19] was 2.37 nM and the IC50 [20] was 21 nM.

B7: P698_RHISA (other)
chain: NEDDSSDYYDASPMNCSSMSVNSTMGWLSMNCTMSCNGTTFPLSNSTHCFHSYTNLTVQSRMETMTYNCSVGTCSNGTCVENGTTTTCW
B7: binds [21]; binds [2].

B8: P943_IXORI (other)
chain: RSKQPTASQSSKNSIKAEFCDTNCTQGTNGAWSGCSEGCFCVHVGNNTKGRCMKLSSDYDYTTQ
B8 was tested, and the Kd [22] was 270 nM and the Kd [23] was 540 nM.

B9: EVA1(P672 22-32) hybrid protein (designed binder)
chain: EDDEDYEDFFKPVTCYFLVAENKTGYPTIVACKQDCNGTTETAPNGTRCFSIGDEGLRRMTANLPYDCPLGQCSNGDCIPKETYEVCYRRNWRDKKN
B9 gave a Kd [24] of 490 nM.

From patent US20240034757A1 (OXFORD UNIVERSITY INNOVATION, published 2024)
